Reference: PMC9002611

Target: Strep-tagged HypC_(H51A) (E. coli) (UniProt P0AAM3)
Test: pull-down; single-step Strep-tactin affinity enrichment of the Strep-tagged chaperone from extracts of anaerobically grown SHH228 cells co-producing HypD; elution fractions (10 ug protein) on SDS-PAGE, Coomassie stain, densitometry (ImageQuant TL); apparent stoichiometries

B1: HypD (untagged) (natural protein)
chain: MRFVDEYRAPEQVMQLIEHLRERASHLSYTAERPLRIMEVCGGHTHAIFKFGLDQLLPENVEFIHGPGCPVCVLPMGRIDTCVEIASHPEVIFCTFGDAMRVPGKQGSLLQAKARGADVRIVYSPMDALKLAQENPTRKVVFFGLGFETTMPTTAITLQQAKARDVQNFYFFCQHITLIPTLRSLLEQPDNGIDAFLAPGHVSMVIGTDAYNFIASDFHRPLVVAGFEPLDLLQGVVMLVQQKIAAHSKVENQYRRVVPDAGNLLAQQAIADVFCVNGDSEWRGLGVIESSGVHLTPDYQRFDAEAHFRPAPQQVCDDPRARCGEVLTGKCKPHQCPLFGNTCNPQTAFGALMVSSEGACAAWYQYRQQESEA
  apparent stoichiometry with HypD, percent lower than for the native chaperone: 85 % lower
